Drawing on the Human Domainome abundance scans (Beltran et al. 2025), this text covers abundance fitness for 34 variants.

To fix the notation:
B1: GA-binding protein alpha chain, residues 172 to 250; numbered along this chain, Q06546 (parent)
chain: GYRKEQERLGIPYDPIQWSTDQVLHWVVWVMKEFSMTDIDLTTLNISGRELCSLNQEDFFQRVPRGEILWSHLELLRKY

± gives the uncertainty stated by the source.

Variants of B1 are the subject of the data set. In words: abundance fitness (aPCA) (normalised: wild type 0, dead -1); higher = more abundant; growth selection in yeast, the domain comes from the species named. Conditions: Homo sapiens.
In the case of GYRKEQERLGIPYDPIQWSTDQVLHWVVWVMKEFSMTDIDLTTLNISGRELCSLNQEDFFQRVPYGEILWSHLELLRKY [R65Y], the abundance fitness is -0.033 ± 0.089. As to GYRKEQERLGIPYDPIQWSTDQVLHWVVWVMKEFSMTDIDLTTLNISGRELCSLNQEDFFQRVPPGEILWSHLELLRKY [R65P], the abundance fitness is -0.455 ± 0.05. For the variant GYRKEQERLGIPYDPIQWSTDQVLHWVVWVMKEFSMTDIDLTTLNISGRELCSLNQEDFFQRVPNGEILWSHLELLRKY [R65N], the abundance fitness is -0.07 ± 0.15. The figure for GYRKEQERLGIPYDPIQWSTDQVLHWVVWVMKEFSMTDIDLTTLNISGRELCSLNQEDFFQRVPMGEILWSHLELLRKY [R65M] is -0.127 ± 0.065; for GYRKEQERLGIPYDPIQWSTDQVLHWVVWVMKEFSMTDIDLTTLNISGRELCSLNQEDFFQRVPVGEILWSHLELLRKY [R65V] it is -0.157 ± 0.043.

Turning to GYRKEQERLGIPYDPIQWSTDQVLHWVVWVMKEFSMTDIDLTTLNISGRELCSLNQEDFFQRVPRGEALWSHLELLRKY [I68A], the abundance fitness amounted to 0.017 ± 0.046. The result for GYRKEQERLGIPYDPIQWSTDQVLHWVVWVMKEFSMTDIDLTTLNISGRELCSLNQEDFFQRVPRGEQLWSHLELLRKY [I68Q] reads -0.077 ± 0.048; that for GYRKEQERLGIPYDPIQWSTDQVLHWVVWVMKEFSMTDIDLTTLNISGRELCSLNQEDFFQRVPRGEGLWSHLELLRKY [I68G], -0.087 ± 0.039. Take GYRKEQERLGIPYDPIQWSTDQVLHWVVWVMKEFSMTDIDLTTLNISGRELCSLNQEDFFQRVPRGEELWSHLELLRKY [I68E]: the abundance fitness is -0.044 ± 0.042. Consider GYRKEQERLGIPYDPIQWSTDQVLHWVVWVMKEFSMTDIDLTTLNISGRELCSLNQEDFFQRVPRGEFLWSHLELLRKY [I68F], for which the abundance fitness is -0.053 ± 0.077. As to GYRKEQERLGIPYDPIQWSTDQVLHWVVWVMKEFSMTDIDLTTLNISGRELCSLNQEDFFQRVPRGEMLWSHLELLRKY [I68M], the abundance fitness is -0.091 ± 0.058. Turning to GYRKEQERLGIPYDPIQWSTDQVLHWVVWVMKEFSMTDIDLTTLNISGRELCSLNQEDFFQRVPRGEVLWSHLELLRKY [I68V], the abundance fitness is -0.021 ± 0.038.

As to GYRKEQERLGIPYDPIQWSTDQVLHWVVWVMKEFSMTDIDLTTLNISGRELCSLNQEDFFQRVPRGESLWSHLELLRKY [I68S], the abundance fitness is -0.076 ± 0.041. The result for GYRKEQERLGIPYDPIQWSTDQVLHWVVWVMKEFSMTDIDLTTLNISGRELCSLNQEDFFQRVPRGENLWSHLELLRKY [I68N] reads -0.194 ± 0.096; that for GYRKEQERLGIPYDPIQWSTDQVLHWVVWVMKEFSMTDIDLTTLNISGRELCSLNQEDFFQRVPRGEYLWSHLELLRKY [I68Y], -0.037 ± 0.071; that for GYRKEQERLGIPYDPIQWSTDQVLHWVVWVMKEFSMTDIDLTTLNISGRELCSLNQEDFFQRVPRGECLWSHLELLRKY [I68C], -0.055 ± 0.06. For GYRKEQERLGIPYDPIQWSTDQVLHWVVWVMKEFSMTDIDLTTLNISGRELCSLNQEDFFQRVPRGELLWSHLELLRKY [I68L], the abundance fitness was -0.037 ± 0.032.

As to GYRKEQERLGIPYDPIQWSTDQVLHWVVWVMKEFSMTDIDLTTLNISGRELCSLNQEDFFQRVPRGEWLWSHLELLRKY [I68W], the abundance fitness was -0.115 ± 0.045. The figure for GYRKEQERLGIPYDPIQWSTDQVLHWVVWVMKEFSMTDIDLTTLNISGRELCSLNQEDFFQRVPRGEPLWSHLELLRKY [I68P] is 0.023 ± 0.035; for GYRKEQERLGIPYDPIQWSTDQVLHWVVWVMKEFSMTDIDLTTLNISGRELCSLNQEDFFQRVPRGETLWSHLELLRKY [I68T] it is -0.065 ± 0.051.

As for GYRKEQERLGIPYDPIQWSTDQVLHWVVWVMKEFSMTDIDLTTLNISGRELCSLNQEDFFQRVPRGEHLWSHLELLRKY [I68H], the abundance fitness is -0.095 ± 0.1.

GYRKEQERLGIPYDPIQWSTDQVLHWVVWVMKEFSMTDIDLTTLNISGRELCSLNQEDFFQRVPRVEILWSHLELLRKY [G66V]: the abundance fitness is -0.835 ± 0.083.

As for GYRKEQERLGIPYDPIQWSTDQVLHWVVWVMKEFSMTDIDLTTLNISGRELCSLNQEDFFQRVPRSEILWSHLELLRKY [G66S], the abundance fitness is -0.199 ± 0.037. The figure for GYRKEQERLGIPYDPIQWSTDQVLHWVVWVMKEFSMTDIDLTTLNISGRELCSLNQEDFFQRVPRAEILWSHLELLRKY [G66A] is -0.025 ± 0.039; for GYRKEQERLGIPYDPIQWSTDQVLHWVVWVMKEFSMTDIDLTTLNISGRELCSLNQEDFFQRVPRKEILWSHLELLRKY [G66K] it is -0.728 ± 0.12. On to GYRKEQERLGIPYDPIQWSTDQVLHWVVWVMKEFSMTDIDLTTLNISGRELCSLNQEDFFQRVPRLEILWSHLELLRKY [G66L], for which the abundance fitness is -0.795 ± 0.077. Regarding GYRKEQERLGIPYDPIQWSTDQVLHWVVWVMKEFSMTDIDLTTLNISGRELCSLNQEDFFQRVPRIEILWSHLELLRKY [G66I], the abundance fitness is -0.772 ± 0.37.

Turning to GYRKEQERLGIPYDPIQWSTDQVLHWVVWVMKEFSMTDIDLTTLNISGRELCSLNQEDFFQRVPRHEILWSHLELLRKY [G66H], the abundance fitness was -0.608 ± 0.11. Turning to GYRKEQERLGIPYDPIQWSTDQVLHWVVWVMKEFSMTDIDLTTLNISGRELCSLNQEDFFQRVPRPEILWSHLELLRKY [G66P], the abundance fitness was -0.019 ± 0.04. The figure for GYRKEQERLGIPYDPIQWSTDQVLHWVVWVMKEFSMTDIDLTTLNISGRELCSLNQEDFFQRVPRQEILWSHLELLRKY [G66Q] is -0.773 ± 0.17.

With GYRKEQERLGIPYDPIQWSTDQVLHWVVWVMKEFSMTDIDLTTLNISGRELCSLNQEDFFQRVPRCEILWSHLELLRKY [G66C], the abundance fitness was -0.298 ± 0.04. The figure for GYRKEQERLGIPYDPIQWSTDQVLHWVVWVMKEFSMTDIDLTTLNISGRELCSLNQEDFFQRVPRTEILWSHLELLRKY [G66T] is -0.735 ± 0.17. Regarding GYRKEQERLGIPYDPIQWSTDQVLHWVVWVMKEFSMTDIDLTTLNISGRELCSLNQEDFFQRVPRREILWSHLELLRKY [G66R], the abundance fitness is -0.562 ± 0.04. The result for GYRKEQERLGIPYDPIQWSTDQVLHWVVWVMKEFSMTDIDLTTLNISGRELCSLNQEDFFQRVPRMEILWSHLELLRKY [G66M] reads -0.967 ± 0.16.
